For orientation: Kd means the constant that tells how readily two partners part at equilibrium. A lower Kd goes with a tighter complex.

Test [1] deals with T1, Soluble human FcRn (complex of FcRn and β2-microglobulin) (human, UniProt P55899 24-290; P61769 21-119).
T1 construct: Co-expressed in HEK293H cells and purified from the culture supernatant; also called hFcRn
The test can be described thus: SPR (Biacore 3000), pH 6.0; antibody captured on Protein L or rabbit anti-human IgG Kappa chain antibody, human FcRn as analyte; steady state affinity fit. Here is the method: (§1) Human FcRn was prepared according to the method described in Reference Example 2. The binding to human FcRn was assessed using Biacore 3000. An antibody was bound to Protein L or rabbit anti-human IgG Kappa chain antibody immobilized onto a sensor chip, human FcRn was added as an analyte for interaction with the antibody, and the affinity (KD) was calculated from the amount of bound human FcRn. Specifically, Protein L or rabbit anti-human IgG Kappa chain antibody was immobilized onto sensor chip CMS (BIACORE) by the amine coupling method using 50 mM Sodium-phosphate buffer (pH 6.0) containing 150 mM NaCl as the running buffer. Then, IL6R H0-IgG1/L0-k0 and IL6R H0-M82/L0-k0 was each diluted with a running buffer containing 0.02% Tween20, and injected to be bound to the chip. Human FcRn was then injected and the binding of the human FcRn to antibody was assessed.
(§2) The affinity was computed using BIAevaluation Software. The obtained sensorgram was used to calculate the amount of hFcRn bound to the antibody immediately before the end of human FcRn injection. The affinity of the antibody for human FcRn was calculated by fitting with the steady state affinity method.
Background: SPR reads the build-up and loss of mass on a sensor chip optically.

For test [2], the target named is T1, Soluble human FcRn (complex of FcRn and …). The test can be described thus: SPR (Biacore 3000), pH 6.0; antibody captured, human FcRn as analyte; steady state affinity. Here is the method: as §1, §2

T1 sequence (P55899 24-290 limits assumed, chain 1 of 2): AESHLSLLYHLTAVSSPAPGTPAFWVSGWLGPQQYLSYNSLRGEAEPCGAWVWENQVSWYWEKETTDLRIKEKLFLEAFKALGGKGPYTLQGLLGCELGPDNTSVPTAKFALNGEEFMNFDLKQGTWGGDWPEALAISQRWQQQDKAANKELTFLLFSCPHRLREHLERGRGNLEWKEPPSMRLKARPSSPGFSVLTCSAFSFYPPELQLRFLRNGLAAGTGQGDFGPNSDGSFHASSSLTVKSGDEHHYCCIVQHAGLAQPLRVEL
T1 sequence (P61769 21-119 limits assumed, chain 2 of 2): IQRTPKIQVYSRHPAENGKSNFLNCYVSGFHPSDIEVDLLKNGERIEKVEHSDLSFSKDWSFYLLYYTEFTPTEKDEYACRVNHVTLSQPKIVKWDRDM

B1: IL6R H0-M82/L0-k0 (antibody, IgG2)
heavy: QVQLQESGPGLVRPSQTLSLTCTVSGYSITSDHAWSWVRQPPGRGLEWIGYISYSGITTYNPSLKSRVTMLRDTSKNQFSLRLSSVTAADTAVYYCARSLARTTAMDYWGQGSLVTVSSASTKGPSVFPLAPCSRSTSESTAALGCLVKDYFPEPVTVSWNSGALTSGVHTFPAVLQSSGLYSLSSVVTVPSSNFGTQTYTCNVDHKPSNTKVDKTVERKSSVECPPCPAPPVAGPSVFLFPPKPKDTLMISRTPEVTCVVVDVSQEDPEVQFNWYVDGVEVHNAKTKPREEQFNSTFRVVSVLTVVHQDWLNGKEYKCKVSNKGLPAPIEKTISKTKGQPREPQVYTLPPSQEEMTKNQVSLTCLVKGFYPSDIAVEWESNGQPENNYKTTPPMLDSDGSFFLYSKLTVDKSRWQEGNVFSCSVMHEALHNHYTQKSLSLSP
light: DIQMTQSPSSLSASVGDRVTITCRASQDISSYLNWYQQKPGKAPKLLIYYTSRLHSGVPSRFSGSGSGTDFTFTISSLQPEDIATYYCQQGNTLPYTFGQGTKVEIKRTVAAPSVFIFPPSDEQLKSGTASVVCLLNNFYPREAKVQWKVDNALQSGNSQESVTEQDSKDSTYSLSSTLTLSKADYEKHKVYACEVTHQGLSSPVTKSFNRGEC
notes: Same variable regions as m1; The M82 constant region is an IgG2 variant with C219S, C220S, H268Q, R355Q and Q419E (EU numbering) and with Gly446 and Lys447 deleted; also called M82-k0
B1 registered a Kd in test [1] of 1210 nM. The “fold increase of binding compared to IL6R H0-IgG1/L0-k0” value in test [2] is around 1.34 times.

(Values after US20120065379A1 (Chugai, published 2012).)
